In patent US8969034B2, “Endoglycosidases that cleave O-linked glycans” (New England Biolabs, Inc., priority 2008, dated 2015):

B1: EngPA: recombinant endo-α-GalNAcase of Propionibacterium acnes (protein)
chain: MSRTPRGRSIGALAVSAGTMLALIAPTAPAHAETRYRQINQAAITAVAADSATATDPISNTLDGNPDTIWHTTWQNGKDPLPHWIVFKLGDEAVNLGKVEITPRSSSNGSGRMHDYELYTANTKTCNNAAFSSAKPVATGSYGASDTSIRKITFAATKATCVKVKVNSSWGGDGSDEEVSSMAEFNAFTVDGSDPSPDPTPSEPPTPEVPKDAISLSDGTVTVRARRDFPQVIDYTVGHAHMAGRIGSPLTKVRINGADHVATVSAPTTTGSSASWKLTFRDLPGVELTADIKVSDGVMTWSIPHIVDTPDHRVNTVSVPGLTLASVTSTDPKAQLSSANIVVDRNKTGDLFQPLATADVSQDTSWVAMANDSTLAAGFEDNATQDGLVGSAATVARFVHSISQVGGTKVGAIEPATWVHRGKGSATPFPTDSLGNKAVCQLPGGATVKDGIGPDPDTPYVRVKIVADANADGKVDWQDAAVATRDVTMKPTGSGDVANKVITHIPFNIVSQATHPFLRTLDDVKRISLATDGLGQQALLKGYQAEGHDSAHPDYGGNVSHRAGGMKDLEKLTESGRQWNTDFGIHVNLVESYPEANHFGDNILVKPYQKAWDWMEQSYRMDYAKDLGSGQLFARLNQLRKELGAKSNLDWLYFDTNYPAGWQNDRIANALNAEGWRIGSEWSSTYPRYNQWSHWANDENYGTGNKGYSSRIIRFIDNSRRDTWNPDPILGNSNVVEYEGWTSHNDYNAFIANVWQRNLPTKFLQRSDIMSWQDGRIAFANGAVATSSKKSISGHEIPTARTITFDGATVFKEGGSYLLPWSNGGSDRLYYWNPGNGSATWKLTNSWAAQKSVSLFMLTDTGRVKVAEIPVTNRSIRIPATKAKTAYVLYPTSKVPAAKTPNWGEGSHFANPGFYSGDTAGWNARGNVSVKHNDRGNFHLEFGKAQSQISQVLNLPAGDHSLWAWVQIDPTKTRPVGLAVDGTGVTPIDHQKGCGGHAESVITSTTAINATASDEYFGTYHQRLRVAFHSDGRPVTVTLKALAGNAIVSADDFRVVDAAVPSDPHVTPATVLFQNFEDVDTGYWPFVTGSAGMEGDARTQLSRRHEPYTQKGWNGRAMDSVLSGDWSLKMHEERNGIVLRTTTASAPLTGGGTRYRISFDYQADKPGYSFVTGHDKVSGKSVKEVITESHAMGVATSTTHFSTDIVVKDQPAWIGFTHQGEGDMSIDNLRIEKLDPRPISVTSTQAAVFPDACKPTPEPIQPAQPSASAPTTSGSPQAPGTGNRPNRYALPRTGADGAGLGFSSSEAASATAAVGVSRQGR
modifications: Propionibacterium acnes
B2: EngEF: recombinant endo-α-GalNAcase (O-glycosidase) of Enterococcus faecalis (protein, listed as Enterococcus faecalis)
chain: MKHGKIKRFSTLTLLASATILVPLSTSAEETTNSSTETSSSMVEPTATEEKLWQSDFPGGKTGEWQDVIGKTNRELAGESLAISRDAAAGNNAVSLNLDSPKLADGEVETKFKYTAGSGRTGVIIRGNTKDSWVFVGYNANGKWLVESPNSWNDSISGPTLNEDTNYLLKVRYVGEKITIWLNTTLIYEGEPVLANGDKIPTEAGHVGVRLWYDKKIVNYDYFKNGPVDSIPEIVPEVTQIAPVKVFTKIGVAPKLPKQVKVTYNTGKEANEAVRWNEIDPDAYKEPGTFEVDGTLENTNIKAKASIVVAKDNEAEKGDKISSADLTAVVDPQFPRIIRYEDPQSNQVIFNGQHEKIDQVMIDGKAYKATAEKQKSEANQAVYNVAVPEIGLRFTTTLTVSEGQELAMKLSDIREEGTKIHTISIPNQGLISVNSTDEGATFAGVVMNTGTNANNGNKNGDTIQDLTTTSQEETKKYMYGFLNTANYAASFWTNAYGDGSVDGSDNNRIHKQTKEAATGFVTTLSSGAWTYRPFDAPEDYTTGETPEVKVKFSKDSNDDNRVDWQDAAIGFRSIMNNPMGAEKVPELVNQRIPFNFASQATNPFLVTLDESKRIYNLTDGLGQMNLLKGYQNEGHDSAHPDYGAIGQRPGGEQALNQLIDEGHKLNAVFGVHINDTESYPEAKGFNEELVDPTKRGWDWLDPSYFIKQRPDTLSGRRYERFKELKQKAPNLDYIYVDVWGNQGESGWASRQLSKEINSLGWFTTNEFPNALEYDSVWNHWSAEKDYGGTTTKGFNSTIVRFIRNHQKDTWIISDNPLLGGAEFEAYEGWVGKTNFNTYRQKTFAINVPTKFLQHYQITNWETTTAADGQIYGTIKLANGAEKVTVTQADANSPRSITLNETEVLKGDAYLLPWNVNGQDKLYHWNPKGGTSTWSLDKKMQGKTNLHLYELTDQGRIDKGAIATTNNQVTIQAEANTPYVIAEPDSIEPMTFGTGTPFKDPGFNEANTLKNNWKVFRGDGEVKKDANGDYVFSSEKERTEIKQDINLPKPGKYSLYLNTETHDRKATVTVKIGGKKYTRTVNNSVAQNYIQADINHTSRKNPQYMQNMRIDFEIPDNAKKGSVTLAVDKGNSVTKFDDLRIVERQTDIMNPDKQTVIKQDFEDTQAVGLYPFVKGSAGGVEDPRIHLSERNEPYTQYGWNGNLVSDVLEGNWSLKAHKQGAGLMLQTIPQNIKFEPNKKYTVQFDYQTDGENVFTAGTINGELKNNNDFKPVGELTSTAADGQTKHYEAEIIGDASGNTTFGIFTTGADKDFIMDNFTVTVESKK

Columns and labels:
[1] = molecular target: Propionibacterium acnes endo-α-GalNAcase EngPA (YP_056270.1), SEQ ID NO:3 (Cutibacterium acnes, UniProt A0ABM7H013); assay: Steady-state enzyme kinetics of EngPA; conditions: EngPA compared with EngEF
[2] = tested on: Bifidobacterium longum endo-α-GalNAcase EngBF, SEQ ID NO:5; conditions: Core 1 substrate; data from Fujita et al. (2005); cited from earlier work
[3] = tested on: CC(=O)N[C@H]1[C@@H](Oc2ccc([N+](=O)[O-])cc2)O[C@H](CO)[C@H](O)[C@@H]1O[C@@H]1O[C@H](CO)[C@H](O)[C@H](O)[C@H]1O; assay: purified protein, by the assay type; conditions: 25.0 °C
[4] = Transglycosylation to 1-alkanols, Core 3 donor (TLC); type: biochemical; conditions: 0.8 mM GlcNAcβ1,3GalNAcα1ρNP donor, 1-alkanols as acceptors, room temperature, 16 h
From the text: The transglycosylation activity can be similarly determined for EngAA*.

[5] = Hydrolysis of pNP substrates, colorimetric assay (Core 2); type: biochemical; conditions: Galβ1,3(GlcNAcβ1,6)GalNAcα1pNP Core 2, 25° C., 16 h, 405 nm
[6] = Hydrolysis of pNP substrates, colorimetric assay (Core 3); type: biochemical
[7] = Hydrolysis of pNP substrates, colorimetric assay (GalNAc); type: biochemical; conditions: GalNAcα1pNP, 25° C., 16 h, 405 nm
[8] = Hydrolysis of pNP substrates, colorimetric assay (Core 1); type: biochemical; conditions: Galβ1,3GalNAcα1pNP Core 1, 0.25 mM substrate, 25° C., 16 h, 405 nm
[9] = Hydrolysis of pNP substrates, colorimetric assay (Galβ1,3GlcNAc); type: biochemical
[10] = tested on: CC(=O)N[C@H]1[C@H](O[C@H]2[C@@H](O)[C@@H](CO)O[C@H](Oc3ccc([N+](=O)[O-])cc3)[C@@H]2NC(C)=O)O[C@H](CO)[C@@H](O)[C@@H]1O; assay: purified protein, by the assay type; conditions: other: Core 3 substrate, 25° C., average of three measurements

| Molecule | transglycosylation products [4] | % product released [5] | % product released [6] | % product released [7] | % product released [8] | % product released [9] | also measured |
| --- | --- | --- | --- | --- | --- | --- | --- |
| CC(=O)N[C@H]1[C@@H](Oc2ccc([N+](=O)[O-])cc2)O[C@H](CO)[C@H](O)[C@@H]1O[C@@H]1O[C@H](CO)[C@H](O)[C@H](O)[C@H]1O [Galβ1,3GalNAcα1ρNP] | – | – | – | – | – | – | kcat, times lower than EngEF ([1]; Core 1 substrate): about 25 times; Km [2]: 21.8 µM; kcat [2]: 17.8 s⁻¹ |
| CC(=O)N[C@H]1[C@H](O[C@H]2[C@@H](O)[C@@H](CO)O[C@H](Oc3ccc([N+](=O)[O-])cc3)[C@@H]2NC(C)=O)O[C@H](CO)[C@@H](O)[C@@H]1O [GlcNAcβ1,3GalNAcα1ρNP] | – | – | – | – | – | – | kcat, times higher than EngEF ([1]; Core 3 substrate): 3 times |
| Clostridium perfringens endo-α-GalNAcase EngCP (YP_695137.1), SEQ ID NO:6 (Clostridium perfringens ATCC 13124) | – | – | – | – | – | – | Km [3]: 70.93 µM; kcat [3]: 19.9 s⁻¹ |
| EngSP: endo-α-GalNAcase from Streptococcus pneumoniae, purchased from Roche [reference compound] | no significant difference | 0.6% | 3% | 1.2% | 100% | 0% | – |
| Enterococcus faecalis endo-α-GalNAcase EngEF (NP_815498.1), SEQ ID NO:2 (Enterococcus faecalis V583) | – | – | – | – | – | – | kcat [10]: 9.43 s⁻¹ |
| Propionibacterium acnes endo-α-GalNAcase EngPA (YP_056270.1), SEQ ID NO:3 (Cutibacterium acnes subsp. acnes) | – | – | – | – | – | – | kcat [10]: 28.9 s⁻¹ |
| B1 | no significant difference | 0% | 100% | 1.8% | 100% | 0% | hydrolysis of the Core 3 disaccharide (in words) [6]: fully hydrolyzing |
| B2 | no significant difference | 2% | 100% | 2.2% | 100% | 0% | hydrolysis of the Core 3 disaccharide (in words) [6]: fully hydrolyzing |
